B1: Antibody No. A002 (ADI-50024) IgG1 (antibody, V domains shown)
VH: QVQLVQSGAEVKKPGASVKVSCKASGFNIKDYYMHWVRQAPGQRLEWIGWIDLENANTVYDAKFQGRVTITRDTSASTAYMELSSLRSEDTAVYYCARDAYGRYFYDVWGQGTLVTVSS
VL: DIVMSQSPDSLAVSLGERATINCKSSQSLLNARTGKNYLAWYQQKPGQPPKLLIYWASTRSSGVPDRFSGSGSGTDFTLTISSLQAEDVAVYYCVQSYFRRTFGGGTKVEIK
B2: Antibody No. V010 (ADI-70327) IgG1 (antibody, V domains shown)
VH: QVQLVQSGAEVKKPGASVKVSCKASGFDIKDYYMHWVRQAPGQRLEWIGWIELENDDTVYDAKFQGRVTITRDTSASTAYMELSSLRSEDTAVYYCARDAYGRYFYDVWGQGTLVTVSS
VL: DIVMSQSPDSLAVSLGERATINCKSSQSLLNARTGKNYLAWYQQKPGQPPKLLIYWASTRSSGVPDRFSGSGSGTDFTLTISSLQAEDVAVYYCVQSYFRRTFGGGTKVEIK
B3: Antibody No. V009 (ADI-70326) IgG1 (antibody, V domains shown)
VH: QVQLVQSGAEVKKPGASVKVSCKASGFDIKDYYMHWVRQAPGQRLEWIGWIELENADTVYDAKFQGRVTITRDTSASTAYMELSSLRSEDTAVYYCARDAYGRYFYDVWGQGTLVTVSS
VL: DIVMSQSPDSLAVSLGERATINCKSSQSLLNARTGKNYLAWYQQKPGQPPKLLIYWASTRSSGVPDRFSGSGSGTDFTLTISSLQAEDVAVYYCVQSYFRRTFGGGTKVEIK
B4: Antibody No. V013 (ADI-70330) IgG1 (antibody, V domains shown)
VH: QVQLVQSGAEVKKPGASVKVSCKASGFNIDDYYMHWVRQAPGQRLEWIGWIDLENANTVDDAKFQGRVTITRDTSASTAYMELSSLRSEDTAVYYCARDAYGRYFYDVWGQGTLVTVSS
VL: DIVMSQSPDSLAVSLGERATINCKSSQSLLNARTGKNYLAWYQQKPGQPPKLLIYWASTRSSGVPDRFSGSGSGTDFTLTISSLQAEDVAVYYCVQSYFRRTFGGGTKVEIK

Target: Mouse CD3εδ Fc heterodimer (mouse) (UniProt P22646)
Experiment: BLI (Octet), IgG avidity, pH 7.4

Point of comparison: B2, Kd 510 nM. Against it:
- B1 — 5.6-fold lower, 91 nM
- B3 — within 1.5-fold, 360 nM
- B4 — within 1.5-fold, 530 nM

Source: patent US20240317858A1
